IntAct's records for PubMed 8137824

B1: Mating-type protein ALPHA2 (Saccharomyces cerevisiae), P0CY08 (parent)
chain: MNKIPIKDLLNPQITDEFKSSILDINKKLFSICCNLPKLPESVTTEEEVELRDILGFLSRANKNRKISDEEKKLLQTTSQLTTTITVLLKEMRSIENDRSNYQLTQKNKSADGLVFNVVTQDMINKSTKPYRGHRFTKENVRILESWFAKNIENPYLDTKGLENLMKNTSLSRIQIKNWVSNRRRKEKTITIAPELADLLSGEPLAKKKE
partner: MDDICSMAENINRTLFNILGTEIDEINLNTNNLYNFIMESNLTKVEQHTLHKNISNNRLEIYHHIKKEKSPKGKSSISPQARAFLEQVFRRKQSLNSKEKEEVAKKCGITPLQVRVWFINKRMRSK

Variants of: B1
Conditions: with mata1_yeasx MATA1, P0CY10

effect of a mutation on the interaction	Variant
disrupting interaction strength	MNKIPIKDLLNPQITDEFKSSILDINKKLFSICCNLPKLPESVTTEEEVELRDILGFLSRANKNRKASDEEKKALQTTSQATTTITVALKEMRSIENDRSNYQLTQKNKSADGLVFNVVTQDMINKSTKPYRGHRFTKENVRILESWFAKNIENPYLDTKGLENLMKNTSLSRIQIKNWVSNRRRKEKTITIAPELADLLSGEPLAKKKE [I67A;L74A;L81A;L88A]
